Assay results as given in US20240115706A1 (LG CHEM, published 2024).

T1: monkey GUCY2C-rCD4 fusion protein (Macaca fascicularis (crab-eating …, limits assumed))
T1 construct: Prepared by the same method as the human antigen; also called Cy-GUCY2C-rCD4; monkey GUCY2C recombinant antigen
T1 chain: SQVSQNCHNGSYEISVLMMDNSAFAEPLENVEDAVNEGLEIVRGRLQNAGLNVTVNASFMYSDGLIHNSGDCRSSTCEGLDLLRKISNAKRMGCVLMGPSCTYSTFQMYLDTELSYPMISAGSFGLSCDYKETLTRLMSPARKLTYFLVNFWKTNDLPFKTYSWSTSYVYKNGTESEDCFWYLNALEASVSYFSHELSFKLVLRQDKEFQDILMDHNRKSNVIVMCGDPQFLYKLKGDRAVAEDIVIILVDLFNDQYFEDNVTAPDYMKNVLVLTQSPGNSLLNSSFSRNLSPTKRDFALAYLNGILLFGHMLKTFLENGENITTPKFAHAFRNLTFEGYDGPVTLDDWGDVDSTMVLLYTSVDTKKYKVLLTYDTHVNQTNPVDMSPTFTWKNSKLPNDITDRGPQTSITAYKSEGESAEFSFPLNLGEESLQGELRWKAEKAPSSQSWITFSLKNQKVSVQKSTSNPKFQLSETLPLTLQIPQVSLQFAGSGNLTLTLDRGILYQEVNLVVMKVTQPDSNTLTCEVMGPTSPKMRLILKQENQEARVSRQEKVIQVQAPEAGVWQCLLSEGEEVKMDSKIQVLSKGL


Columns and labels:
[1] = biological target: T2, human GUCY2C-rCD4 fusion protein (Homo sapiens (human); Rattus norvegicus, biotinylated (site not given)); test: SPR (Sierra SPR-32), scFv on protein G, antigen 800-12.5 nM, 25 C
T2 construct: GUCY2C conjugated/fused with CD4; also called Hu-GUCY2C-rCD4; human GUCY2C recombinant antigen
Method: Furthermore, the affinity to the GUCY2C antigen of the 18 kinds of scFvs produced in Example 1 was measured by SPR (Surface plasmon resonance) analysis.
SPR assay was performed with association time 2 min and dissociation time 10 min under the condition of 25 degrees of Celsius using MASS2 (Sierra SPR-32; Bruker). The data were analyzed with Software R3.

[2] = biological target: T1, monkey GUCY2C-rCD4 fusion protein; test: ELISA (DELFIA), antigen on streptavidin plate, scFv culture solution, Eu-anti-tag Ab
Method: (§1) More specifically, GUCY2C-rCD4 fusion protein, in which the prepared human GUCY2C (SEQ ID NO: 112), monkey GUCY2C (SEQ ID NO: 114), and mouse GUCY2C (SEQ ID NO: 113) were fused, respectively, was bound to a place coated with streptavidin in a Nunc Maxisorp™96 well plate. After removing all the synthetic proteins not combined with washing buffer, the anti-GUCY2C scFV obtained in the culture solution was incubated in each well. After that, the affinity was measured by reading signals DELFIA enhanced using Eu-anti-tag Ab.

[3] = biological target: T2, human GUCY2C-rCD4 fusion protein; test: as above
Method: as §1

[4] = biological target: T2, human GUCY2C-rCD4 fusion protein; test: ranking ELISA (DELFIA), 5 nM scFv on anti-FLAG, biotinylated antigen, streptavidin-Eu
Method: (§2) More specifically, after coating an anti-FLAG antibody in a MaxiSorb plate and binding by adding scFvs obtained previously, the remaining scFvs were removed by a washing process. Here, a biotinylated human-GUCY2C-rCD4 protein was incubated and combined, and then the affinity to the antigen was measured by reading signals by DELFIA enhancement with color development through streptavidin-Europlum.

[5] = biological target: T2, human GUCY2C-rCD4 fusion protein; test: ranking ELISA (DELFIA), 50 nM scFv on anti-FLAG, biotinylated antigen, streptavidin-Eu
Method: as §2

[6] = biological target: T3, GUCY2C on the cell surface (T84 colon carcinoma cells; HT29-GUCY2C cells) (human, UniProt P25092 24-1073); test: flow cytometry, scFv(-Fc) at 10 ug/mL on GUCY2C-positive T84 cells, detected with IgG-Fc-PE Ab (FL2-H)
T3 construct: whole, on cells; also called GUCY2C expressing T84 cells; HT29 GCC cells
Method: (§3) Using cells naturally expressing GUCY2C, whether 18 kinds of scFvs produced in Example 1 could actually detect GUCY2C expression on the cell surface was confirmed. For this, a GUCY2C positive cancer cell, T84 colon carcinoma cell (ATCC® CCL248™) was used.
(§4) After separating the two cell lines using trypsin-EDTA, they were placed in FACS buffer (1×PBS+2% BSA). 10 ug/mL of each of the 18 kinds of scFvs and positive control group, 5F9 scFv was cultured with T84 and T-47D cells on ice for 1 hour. The scFv combined to cells was detected using 5 ug/mL IgG-Fc-PE Ab (BioLegend; 409304). The cells were cultured with ToPro®3 (live/dead stain) and then red with a flow cytometer.

[7] = biological target: T2, human GUCY2C-rCD4 fusion protein; test: ranking ELISA (DELFIA), 5 nM scFv on anti-FLAG, biotinylated antigen, streptavidin-Eu; affinity ranking ELISA, 5 nM: binds
Method: as §2

[8] = biological target: T2, human GUCY2C-rCD4 fusion protein; test: ranking ELISA (DELFIA), 50 nM scFv on anti-FLAG, biotinylated antigen, streptavidin-Eu; affinity ranking ELISA, 50 nM: binds
Method: as §2

[9] = biological target: T2, human GUCY2C-rCD4 fusion protein; test: ELISA (DELFIA), antigen on streptavidin plate, scFv culture solution, Eu-anti-tag Ab; binding ELISA, Hu-GUCY2C-rCD4 antigen: binds
Method: as §1

[10] = biological target: T3, GUCY2C on the cell surface (T84 colon …); test: flow cytometry on T84 cells, median MFI on live singlet cells (IgG-Fc-PE signal), scFv(-Fc) at 10 ug/mL
Method: as §3, §4

Kd [1]	Binding ELISA signal [2]	Binding ELISA signal [3]	Affinity Ranking ELISA (5 nM) signal [4]	Affinity Ranking ELISA (50 nM) signal [5]	binding result [6]	Affinity Ranking ELISA (5 nM) signal [7]	Affinity Ranking ELISA (50 nM) signal [8]	Binding ELISA signal [9]	binding result [10]	Binder
15 nM	49200	83900	133000	184000	binds	–	–	–	–	scFv C07 (positive control), 5F9 scFv (scFv, also called 5F9 scFv-Fc) scFv: EIVMTQSPATLSVSPGERATLSCRASQSVSRNLAWYQQKPGQAPRLLIYGASTRATGIPARFSGSGSGTEFTLTIGSLQSEDFAVYYCQQYKTWPRTFGQGTNVEIKASGGGGSGGGGSGGGGSGGGGSELQVQLQQWGAGLLKPSETLSLTCAVFGGSFSGYYWSWIRQPPGKGLEWIGEINHRGNTNDNPSLKSRVTISVDTSKNQFALKLSSVTAADTAVYYCARERGYTYGNFDHWGQGTLVTVSS
–	28100	–	–	–	–	13800	104000	30200	–	scFv A01 (scFv, also called 2426_01_A02) scFv: QVQLVQSGAEVKKPGASVKVSCKASGYTFTSYYMHWVRQAPGQGLEWMGIINPSGGSTSYAQEFQGRVTMTRDTSTSTVYMELSSLRSEDTAVYYCARDGQWLQFDYWGQGTLVTVSSGGGGSGGGGSGGGASDIVMTQSPLSLPVTLGQPASISCRSSQSLLKKSDGNTYLSWYHQRPGQSPRRLIYKVSNRDSGVPDRFSGSGSDTDFTLKISRVETEDVGIYYCMQGSHWPPTFGQGTKVEIK
4540 nM	22100	30900	9590	77100	binds	–	–	–	–	scFv B12 (scFv, also called 2437_02_G10) scFv: QVQLVESGGGLVKPGGSLRLSCAASGFTFSSYSMNWVRQAPGKGLEWVSVIYSGGSTHYADSVKGRFTISRHNSKNTLYLQMNSLRAEDTAVYYCARGAGTLNAFDIWGQGTTVTVSSGGGGSGGGGSGGGASQSGLTQPPSTSGSPGQSVTISCTGTSSDVGAYSYVSWYQQHPGKAPKLLIYAVTKRPSGVPDRFSGSKSGNTASLTVSGLQDEDEADYYCSSFAGGSTLVFGGGTKLTVL
–	–	–	–	–	–	23300	153000	61100	–	scFv B08 (scFv, also called 2436_02_F11) scFv: EVQLVQSGAEVKKPGSSVKVSCKASGGTFSSYAISWVRQAPGQGLEWMGGIIPIFGTANYAQKFQGRVTITADKSTSTAYMELSSLRSEDTAVYYCARGHYYYMDVWGQGTTVTVSSGGGGSGGGGSGGGASDIVMTQSPATLSVSPGEGATLSCRASQSVSSNLAWYQQKPGRAPRLLIYGASTRATGIPARFSGSGSGTEFTLTISSLQSEDFAVYYCQQYNNWPSFGGGTKLEIK
335 nM	4490	39400	26200	133000	binds	–	–	–	–	scFv B01 (scFv, also called 2433_01_H07; H07) scFv: EVQLVQPGAEVKKPGSSVKVSCKASGGTLSSYAISWVRQAPGQGLEWMGRIIPILGITNYAQKFQGRVTITADKSTSTAYMELSSLRSEDTAVYFCARDQRPASMDVWGQGTLVTVSSGGGGSGGGGSGGGASQSGLTQPASVSGSPGQSITISCTGTSSDVGGYNYVSWYQQHPGKAPKLMIYEVSNRPSGVSNRFSGSKSGNTASLTISGLQAEDEADYYCSTVTSLSTYVFGTGTKLTVL
–	–	–	–	–	–	8700	54800	58100	–	scFv A08 (scFv, also called 2432_01_D05) scFv: EVQLLESGGGLVQPGGSLRLSCAASGFTFSSYWMSWVRQAPGKGLEWVANIKQDGSEKYYVDSVKGRFTISRDNAKNSLYLQMNSLRAEDTAVYYCAKAPWYSSSPTPYGMDVWGQGTLVTVSSGGGGSGGGGSGGGASDIQMTQSPSSLSASVGDRVTITCQASQDISNYLNWYQQKPGKAPRRLIYGASTLMSGVPSRFSGSGSGTDFTLTISSLQPEDFATYYCQQSYSTPLTFGGGTKVEIK
1330 nM	23600	37500	14800	89600	–	–	–	–	binds	scFv B11 (scFv, also called 2437_02_G07; G07) scFv: QVQLVESGAEVKKPGSSVKVSCKASGGTFSSYAISWVRQAPGQGLEWMGGIIPIFGTANYAQKFQGRVTITADESTSTAYMELSGLRSEDTAVYYCARGIQPLRYYGMDVWGQGTLVTVSSGGGGSGGGGSGGGASQSALTQPPSASGTPGQRVTISCSGSSSNIGSNYVYWYQQLPGTAPKLLIYRNNQRPSGVPDRFSGSKSGTSASLAISGLRSEDEADYYCAAWDDSLSGRGVFGGGTQLTVL
